Biological target: T1, mouse IFIT3 (M. musculus Ifit3, co-expressed with Ifit2 in E. coli) (M. musculus, UniProt Q64345 8-389)
T1 construct: also called interferon-induced protein with tetratricopeptide repeats 3
T1 sequence: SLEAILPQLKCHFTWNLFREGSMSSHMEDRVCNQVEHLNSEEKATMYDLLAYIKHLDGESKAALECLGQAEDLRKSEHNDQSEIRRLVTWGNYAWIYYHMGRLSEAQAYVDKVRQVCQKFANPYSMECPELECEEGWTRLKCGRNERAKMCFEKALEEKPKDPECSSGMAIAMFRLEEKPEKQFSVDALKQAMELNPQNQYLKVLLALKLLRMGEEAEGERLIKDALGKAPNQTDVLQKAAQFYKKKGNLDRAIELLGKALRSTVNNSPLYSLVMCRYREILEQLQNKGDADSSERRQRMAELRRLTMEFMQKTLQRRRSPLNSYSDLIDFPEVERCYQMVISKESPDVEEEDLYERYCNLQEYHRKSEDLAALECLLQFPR
Assay: cryo-EM structure
Conditions: both partners purified

B1: mouse IFIT2 (M. musculus Ifit2, co-expressed with Ifit3 in E. coli) (natural protein, UniProt Q64112 1-472, looked up)
chain: MSTTSKESLVCNLRQLKCHFTWNLIAEDESLDEFEDRVFNKDEFQNSEFKATMCNILAYVKHCRGLNEAALQCLGEAEGFIQQQHPDQVEIRSLVTWGNYAWVYYHMGQFSKAQAYLDKVKQVCKKFSSPYRIENPALDCEEGWARLKCTKNQNERVKVCFQKALEKDPKNPEFTSGWAIAFYRLDDWPARNYCIDSLEQAIQLSPDNTYVKVLLALKLDAVHVHKNQAMALVEEALKKDPSAIDTLLRAARFYCKVYDTDRAIQLLRKALEKLPNNAYVHYYMGCCYRSKVHHMLNRREMVFSGDRKKLEELIQLAVNHLRKAEEIKEMLEYSCSFLADLYIIAKKYDEADYYFQKELSKDLPPGPKQLLHLRYGNFQFFQMKRQDKAIYHYMEGVKIKKKTIPQKKMREKLQRIALRRLHEDESDSEALHILAFLQENGGGQQADKDSERGVDSANQVPSASLDEDGAEY
notes: also called interferon-induced protein with tetratricopeptide repeats 2; source: E. coli Rosetta pLysS, co-expressed with Ifit3, purified (nickel column, TEV cleavage, Superdex 200 size exclusion)
- stoichiometry N: 1

— paper PMC12570964 (Nature Microbiology, 2025)
